# Results published in patent US20070134256A1 (US Dept. of Health and Human Services, published 2007).
# Like-named read-outs stand apart in the source and are kept apart here.
# B1: chimpanzee Fab 5A7 (Fab, V domains shown)
# VH: EVQLLESGGGLVQPGGSLRLSCAASGVTFSSYWMHWVRQAPGKGLEWVSRINSDGSSTNYADSVEGRFTISRDNAKNTLYLQMNSLRAEDTAVYYCSRGGLWDWSPRRIEETKTPFDYWGQGTLVTVSS
# VL: ELTQGPATLSLSPGERATLSCRAGQSLDSSLLSWYQQKPGQAPRLLMYDASTRAPGVPARFSGSGSGTDFTLTISSLQPEDFAVYYCQQHYNLPRTFGQGTKLEIKR
# B2: chimpanzee Fab 5D9 (Fab, V domains shown)
# VH: EVQLLESGPGLVKPSETLSLTCTVSGGSISDFYWSWLRQSPGKGLEWIGVAHSRVSAYYNPSLKSRVTISVDTSKNQLSLRLSAVTAADAALYYCARQGTGTTGVSEDPFDLWGQGTKVIVSL
# VL: ELTQSPSSLSASVGDRVTITCRASQGISNRLNWYQQKPGQGPKFLMYDASSLVSGVPSRFSGSGSGTDFTLTISSLQPEDFAVYYCQQFNSYPLTFGGGTKLEIKR
# B3: chimpanzee Fab 5H2 (Fab, V domains shown)
# VH: EVQLLESGPGLVKPSETLSLTCTVSGGSISDFYWSWLRQSPGKGLEWIGYAHSRVSAYYNPSLKSRVTISVDTSKNQLSLRLSAVTAADTALYYCARQGTGTTGVSEDPFDLWGQGTKVIVSL
# VL: ELQMTQSPSSLSASVGDRVTITCRASQDISIRLNWYQQKPGKAPKLLIYDASTLESGVPSRFSGSGSGTDFTLTISSLQPEDFATYYCQQFNSYPLTFGGGTKVEIKR
# B4: chimpanzee Fab 1A5 (Fab, V domains shown)
# VH: EVQLLESGGGLVQPGGSRRLSCAASGFTISDNVMHWVRQAPGKGLEWVALIYSADTTHYADSVKGRFTISRDNSKNTLYLQMDSLRPEDTAVYYCAREYCTGDTCFAHFDYWGQGTLVSVSS
# VL: ELQMTQSPSSVSASVGDTVTIACRASQSITNYLSWYQQKPGKAPKLLIYHASTLQSGIPSRFSGSGSGTDFTLTISSLQPDDFATYYCHYGYGTHTFGQGTKLEIKR
# Key:
# [1] = molecular target: T1, DENV-4 E glycoprotein (dengue type 4 virus, UniProt P09866 280-774); test: radioimmunoprecipitation
# T1 construct: also called vDENV-4 E product
# [2] = molecular target: T2, dengue type 1 virus (DENV-1), Western Pacific strain, virions (dengue type 1 virus, UniProt P17763 281-775; P17763 115-280); test: ELISA, virion-coated plate, Fab from ~300 µg/ml
# [3] = molecular target: T3, dengue type 4 virus (DENV-4), strain 814669, virions (dengue type 4 virus, UniProt P09866 280-774; P09866 114-279); test: ELISA, virion-coated plate, Fab from ~300 µg/ml
# [4] = molecular target: T4, dengue type 2 virus (DENV-2), prototype New Guinea C strain, virions (dengue type 2 virus, UniProt P14340 281-775; P14340 115-280); test: ELISA, virion-coated plate, Fab from ~300 µg/ml
# [5] = molecular target: T5, dengue type 3 virus (DENV-3), strain H87, virions (dengue type 3 virus, UniProt P27915 281-773; P27915 115-280); test: ELISA, virion-coated plate, Fab from ~300 µg/ml
# [6] = molecular target: T3, dengue type 4 virus (DENV-4), strain …; test: cell-based or functional assay
# [7] = molecular target: T2, dengue type 1 virus (DENV-1), Western …; test: ELISA, virion-coated plate
# [8] = molecular target: T4, dengue type 2 virus (DENV-2), prototype …; test: ELISA, virion-coated plate
# [9] = molecular target: T5, dengue type 3 virus (DENV-3), strain …; test: ELISA, virion-coated plate
# [10] = molecular target: DENV-4 prM glycoprotein (dengue type 4 virus, UniProt P09866 114-279); test: radioimmunoprecipitation of prM expressed alone by recombinant vaccinia virus
# [11] = molecular target: T1, DENV-4 E glycoprotein; test: radioimmunoprecipitation of E expressed alone by recombinant vaccinia virus
# [12] = molecular target: T2, dengue type 1 virus (DENV-1), Western …; test: ELISA, virion-coated plate, Fab from ~140 µg/ml
# [13] = molecular target: T4, dengue type 2 virus (DENV-2), prototype …; test: ELISA, virion-coated plate, Fab from ~140 µg/ml
# [14] = molecular target: T5, dengue type 3 virus (DENV-3), strain …; test: ELISA, virion-coated plate, Fab from ~140 µg/ml
# [15] = molecular target: T2, dengue type 1 virus (DENV-1), Western …; test: ELISA, virion-coated plate; remark: listed apart in the source
# [16] = molecular target: T4, dengue type 2 virus (DENV-2), prototype …; test: ELISA, virion-coated plate; remark: listed apart in the source
# [17] = molecular target: T5, dengue type 3 virus (DENV-3), strain …; test: ELISA, virion-coated plate; remark: listed apart in the source
# [18] = molecular target: T2, dengue type 1 virus (DENV-1), Western …; test: cell-based or functional assay
# [19] = molecular target: T3, dengue type 4 virus (DENV-4), strain …; test: cell-based or functional assay; remark: listed apart in the source
# [20] = molecular target: T4, dengue type 2 virus (DENV-2), prototype …; test: cell-based or functional assay
# [21] = molecular target: T5, dengue type 3 virus (DENV-3), strain …; test: cell-based or functional assay
# [22] = molecular target: T6, DENV-2 antigenic variant NGB-V2 (dengue type 2 virus)
# [23] = molecular target: T7, DENV-2 antigenic variant NGB-V1 (dengue type 2 virus)
# [24] = molecular target: T6, DENV-2 antigenic variant NGB-V2; test: ELISA Kd against parental DENV-2 NGB
# [25] = molecular target: T7, DENV-2 antigenic variant NGB-V1; test: ELISA Kd against parental DENV-2 NGB
# [26] = molecular target: T3, dengue type 4 virus (DENV-4), strain …; test: ELISA, virion-coated plate, Fab from ~140 µg/ml
# [27] = molecular target: WNV/DENV-4 chimera (West Nile virus); test: cell-based or functional assay
# [28] = molecular target: DENV-2 NGB-V1/DENV-4 chimera (dengue type 2 virus); test: cell-based or functional assay
# [29] = molecular target: T8, DENV-4 mutant containing Leu107Phe (dengue type 4 virus, UniProt P09866 280-774); test: cell-based or functional assay
# [30] = molecular target: DENV-2 New Guinea C (NGC) parent virus, mouse-adapted (dengue type 2 virus, UniProt P14340 281-775); test: cell-based or functional assay
# [31] = molecular target: T6, DENV-2 antigenic variant NGB-V2; test: cell-based or functional assay
# [32] = molecular target: T7, DENV-2 antigenic variant NGB-V1; test: cell-based or functional assay
# [33] = molecular target: chimeric DENV-2 (NGB-P)/DENV-4 (dengue type 2 virus); test: cell-based or functional assay
# [34] = molecular target: T3, dengue type 4 virus (DENV-4), strain …; test: cell-based or functional assay; remark: listed apart in the source
# [35] = molecular target: DENV-2 NGB-V2/DENV-4 chimera (dengue type 2 virus); test: cell-based or functional assay
# [36] = molecular target: T8, DENV-4 mutant containing Leu107Phe; test: ELISA Kd
# [37] = molecular target: T3, dengue type 4 virus (DENV-4), strain …; test: ELISA Kd
binder,measurement,setting,value
B1,binding result,[1],no binding
same,ELISA titer of Fab binding,[2],2.51 log10 of reciprocal dilution
same,ELISA titer of Fab binding,[3],3.41 log10 of reciprocal dilution
same,ELISA titer of Fab binding,[4],2.51 log10 of reciprocal dilution
same,ELISA titer of Fab binding,[5],2.51 log10 of reciprocal dilution
same,PRNT50 titer,[6],> 200 µg/mL
B2,binding result,[7],no binding
same,binding result,[8],no binding
same,binding result,[9],no binding
same,binding result,[10],no binding
same,ELISA titer of Fab binding,[2],< 1 log10 of reciprocal dilution
same,ELISA titer of Fab binding,[3],3.41 log10 of reciprocal dilution
same,ELISA titer of Fab binding,[4],< 1 log10 of reciprocal dilution
same,ELISA titer of Fab binding,[5],< 1 log10 of reciprocal dilution
same,PRNT50 titer,[6],0.58 µg/mL
B3,binding result,[11],binds
same,ELISA titer of Fab binding,[2],< 1 log10 of reciprocal dilution
same,ELISA titer of Fab binding,[4],< 1 log10 of reciprocal dilution
same,ELISA titer of Fab binding,[5],< 1 log10 of reciprocal dilution
same,ELISA titer of Fab binding,[12],< 1 log10 of reciprocal dilution
same,ELISA titer of Fab binding,[13],< 1 log10 of reciprocal dilution
same,ELISA titer of Fab binding,[14],< 1 log10 of reciprocal dilution
same,binding result,[15],no binding
same,binding result,[16],no binding
same,binding result,[17],no binding
B4,PRNT50 titer,[18],0.49 µg/mL
same,PRNT50 titer,[19],4.23 µg/mL
same,PRNT50 titer,[20],0.77 µg/mL
same,PRNT50 titer,[21],3.49 µg/mL
same,Kd,[22],37.8 nM
same,Kd,[23],0.75 nM
same,Affinity Reduction (fold),[24],80.3 fold
same,Affinity Reduction (fold),[25],1.6 fold
same,ELISA titer of Fab binding,[12],4.1 log10 of reciprocal dilution
same,ELISA titer of Fab binding,[26],3.8 log10 of reciprocal dilution
same,ELISA titer of Fab binding,[13],3.8 log10 of reciprocal dilution
same,ELISA titer of Fab binding,[14],3.8 log10 of reciprocal dilution
same,PRNT50 titer,[27],4.8 µg/mL
same,PRNT50 titer,[28],31.7 µg/mL
same,PRNT50 titer,[29],~50 µg/mL
same,PRNT50 titer,[30],0.89 µg/mL
same,PRNT50 titer,[31],> 70 µg/mL
same,PRNT50 titer,[32],12 µg/mL
same,PRNT50 titer,[33],0.64 µg/mL
same,PRNT50 titer,[34],4.3 µg/mL
same,PRNT50 titer,[35],> 70 µg/mL
same,Kd,[36],3.07 nM
same,Kd,[37],0.65 nM
